Reference: publication doi:10.1101/2023.04.22.537891

Molecular target: T1, TaNAC016-3A (Triticum aestivum, UniProt A0A3B6EBU1 1-353)
T1 sequence: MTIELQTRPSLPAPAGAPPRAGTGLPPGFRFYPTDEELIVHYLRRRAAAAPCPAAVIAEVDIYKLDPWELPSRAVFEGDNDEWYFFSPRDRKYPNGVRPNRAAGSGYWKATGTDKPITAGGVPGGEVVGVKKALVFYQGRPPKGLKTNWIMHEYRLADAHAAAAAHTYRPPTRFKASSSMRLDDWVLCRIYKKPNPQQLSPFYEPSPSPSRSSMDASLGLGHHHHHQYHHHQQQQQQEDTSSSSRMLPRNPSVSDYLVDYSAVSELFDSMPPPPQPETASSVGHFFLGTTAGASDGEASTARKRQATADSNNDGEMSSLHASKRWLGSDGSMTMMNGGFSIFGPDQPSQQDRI
Experiment: EMSA

B1: proTaPAO-4B EMSA probe (PAOsite2) (dsDNA)
DNA 1: AAGGATGGCCGGCACTTACGCAACCTGTCCTTAGACCCCCACAGAAC
DNA 2: GTTCTGTGGGGGTCTAAGGACAGGTTGCGTAAGTGCCGGCCATCCTT
- binding result: binds
